Experimental data as given in patent US20060140889A1 (L MABS B V, published 2006).

Experiments:
[1] = molecular target: T1, bovine lactoferrin (bovine, UniProt P24627 20-708); assay: not described at this place
T1 construct: also called LF

[2] = molecular target: T2, chicken lysozyme (chicken, UniProt P00698 19-147); assay: ELISA, well coated with lysozyme (100 ug/ml) and blocked with ELK, ~50 ng iMab per well, anti-VSV-HRP; urea purification
T2 construct: also called Egg White Lysozyme

[3] = molecular target: T2, chicken lysozyme; assay: ELISA on lysozyme, 100-fold dilution of the protein extract
[4] = molecular target: T2, chicken lysozyme; assay: ELISA

T2 sequence (P00698 19-147 limits assumed): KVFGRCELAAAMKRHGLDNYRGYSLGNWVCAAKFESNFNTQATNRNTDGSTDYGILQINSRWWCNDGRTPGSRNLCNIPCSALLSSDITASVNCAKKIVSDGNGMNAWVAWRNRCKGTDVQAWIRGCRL
T1 sequence (P24627 20-708 limits assumed): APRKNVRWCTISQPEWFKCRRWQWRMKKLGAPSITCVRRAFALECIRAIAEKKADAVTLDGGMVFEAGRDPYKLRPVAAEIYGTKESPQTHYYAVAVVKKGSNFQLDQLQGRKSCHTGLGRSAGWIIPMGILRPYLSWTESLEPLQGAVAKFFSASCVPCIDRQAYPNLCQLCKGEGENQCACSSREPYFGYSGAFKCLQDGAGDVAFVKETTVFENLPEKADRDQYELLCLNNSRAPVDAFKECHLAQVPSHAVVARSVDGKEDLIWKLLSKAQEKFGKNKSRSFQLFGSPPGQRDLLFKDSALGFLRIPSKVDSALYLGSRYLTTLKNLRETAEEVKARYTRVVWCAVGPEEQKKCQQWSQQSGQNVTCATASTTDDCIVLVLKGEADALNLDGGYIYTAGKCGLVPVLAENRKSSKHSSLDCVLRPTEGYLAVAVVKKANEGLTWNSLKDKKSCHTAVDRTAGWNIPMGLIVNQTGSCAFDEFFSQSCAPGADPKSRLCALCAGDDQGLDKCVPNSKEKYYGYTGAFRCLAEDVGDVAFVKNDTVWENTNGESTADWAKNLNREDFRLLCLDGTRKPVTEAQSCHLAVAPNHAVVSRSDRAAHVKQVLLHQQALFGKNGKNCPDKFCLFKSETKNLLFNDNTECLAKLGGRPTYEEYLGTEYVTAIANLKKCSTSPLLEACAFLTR

| Binder | binding result [1] | Absorbtion (450 nm) [2] [absorbance at 450 nm] | other results |
| --- | --- | --- | --- |
| iMab142-xx-0002 (designed binder, not shown: small tags and cut ends, also called iMab142-xx-002) MNVKLVEKGGNFVENDDDLKLTCRAEGYTIGPYSMGWFRQAPNDDSTNVSCINMGGGITYYGDSVKERFDIRRDNASNTVTLSMDDLQPEDSAVYNCAADWWDGFTYGSTWYNPSSYDYRGQGTDVTVSS | binds | – | – |
| iMab148-xx-0002 (designed binder, Derivative of iMab142-xx-0002 in which all lysine residues were replaced; xx = C-terminal tag not specified) MNVHLVERGGNFVENDDDLNLTCRAEGYTIGPYSMGWFRQAPNDDSTNVATINMGGGITYYGDSVDERFDIRRDNASNTVTLSMDDLQPEDSAVYNCAADWWDGFTYGSTWYNPSSYDYRGQGTDVTVSS | binds | – | – |
| iMab122 (designed binder, 9 beta-strand iMab; E. coli, CM126; not shown: C-terminal linker, VSV tag and 6x His tag of vector CM126) NVKLVEKGGNFVENDDDLKLTCRASGRTFSSRTMGWFRQAPNDDSTNVATIRWNGGSTYYTNYGDSVKERFDIRVDQASNTVTLSMDDLQPEDSAEYNCAGTDIGDGWSGRYDYRGQGTDVTVSS | – | 0.271 | – |
| iMab111 (designed binder, iMab100 derivative with two extra cysteines in the core; E. coli, CM126) NVKLVCKGGNFVENDDDLKLTCRAEGYTIGPYCMGWFRQAPNDDSTNVATINMGGGITYYGDSVKERFDIRRDNASNTVTLSMDDLQPEDSAEYNCAGDSTIYASYYECGHGLSTGGYGYDSHYRCQGTDVTVSS | – | 0.42 | signal over background signal (fold) [3]: ~20 fold |
| iMab115 (designed binder, iMab100 with the asparagine of the putative N-glycosylation site in AR3 changed to glutamine; expressed in E. coli as a 21 kD protein; also called iMab15) NVKLVEKGGNFVENDDDLKLTCRAEGYTIGPYCMGWFRQAPNDDSTNVATINMGGGITYYGDSVKERFDIRRDQASNTVTLSMDDLQPEDSAEYNCAGDSTIYASYYECGHGLSTGGYGYDSHYRGQGTDVTVSS | – | – | binding result [4]: binds |
| iMab116 (designed binder, iMab100 derivative lacking one core cysteine; E. coli, CM126; also called iMab16; not shown: C-terminal linker, VSV tag and 6x His tag of vector CM126) NVKLVEKGGNFVENDDDLKLTCRAEGYTIGPYCMGWFRQAPNDDSTNVATINMGGGITYYGDSVKERFDIRRDNASNTVTLSMDDLQPEDSAEYNGAGDSTIYGSYYECGHGLSTGGYGYDSHYRGQGTDVTVSS | – | 0.238 | – |
